Changes are numbered by the printed parent chain.

For data set [1], the system named is ubiquitin-Met-beta-galactosidase fusion protein.
The target of data set [2] is ubiquitin-Met-beta-galactosidase fusion protein. This is another data set of the same source.

On to “GST-DUB-3C89S fusion protein (pGEX-DUB-3C89S)”, for which, in data set [1], the “cleavage of ubiquitin from the ubiquitin-Met-beta-galactosidase fusion protein (immunoblot with anti-beta-galactosidase)” value is reported as “this activity was ablated by mutating the cysteine residue (C89S) conserved within the active site”. Still for that read-out and setting: next, GST-DUB-3 fusion protein (pGEX-DUB-3): “DUB-3 displayed deubiquitinating activity at least equivalent to that of DUB-1”.

B1: GST-DUB-1 fusion protein (pGEX-DUB-1) (protein)
chain: MVVALSFPEADPALSSPDAPELHQDEAQVVEELTVNGKHSLSWESPQGPGCGLQNTGNSCYLNAALQCLTHTPPLADYMLSQEHSQTCCSPEGCKLCAMEALVTQSLLHSHSGDVMKPSHILTSAFHKHQQEDAHEFLMFTLETMHESCLQVHRQSKPTSEDSSPIHDIFGGWWRSQIKCLLCQGTSDTYDRFLDIPLDISSAQSVKQALWDTEKSEELCGDNAYYCGKCRQKMPASKTLHVHIAPKVLMVVLNRFSAFTGNKLDRKVSYPEFLDLKPYLSEPTGGPLPYALYAVLVHDGATSHSGHYFCCVKAGHGKWYKMDDTKVTRCDVTSVLNENAYVLFYVQQANLKQVSIDMPEGRINEVLDPEYQLKKSRRKKHKKKSPFTEDLGEPCENRDKRAIKETSLGKGKVLQEVNHKKAGQKHGNTKLMPQKQNHQKAGQNLRNTEVELDLPADAIVIHQPRSTANWGRDSPDKENQPLHNADRLLTSQGPVNTWQLCRQEGRRRSKKGQNKNKQGQRLLLVC
As to B1, in data set [2], the “cleavage of the Ub-Met-beta-gal fusion” value was “Deubiquitinating activity was demonstrated for both DUB-1 and DUB-3 fusion proteins by the cleavage of the Ub-Met-β-gal fusion”.

B2: GST-DUB-1C60S fusion protein (pGEX-DUB-1 (C60)) (protein)
chain: B1 chain with C60S
Regarding B2, in data set [2], the “cleavage of the Ub-Met-beta-gal fusion” value was “DUB-1C60S (lane 3) and DUB-3C89S (lane 5) are catalytically inactive”.

The values above are taken from patent US20070129319.
